Data reported in US20240309080A1 (CHIA TAI TIANQING PHARMACEUTICAL GROUP, published 2024).
Read-outs that look alike come from different tables or passages of the source.

Experiments:
Experiment in all cases: cell-based or functional assay
[1] = target: T1, recombinant human TSLP-his (human, UniProt Q969D9 29-159, biotin-labeled in the capture ELISA)
[2] = target: T1, recombinant human TSLP-his; remark: listed apart in the source
[3] = target: T1, recombinant human TSLP-his; remark: listed apart in the source
[4] = target: T1, recombinant human TSLP-his; remark: listed apart in the source
[5] = target: T1, recombinant human TSLP-his; remark: listed apart in the source
[6] = target: T1, recombinant human TSLP-his; remark: listed apart in the source

B1: Chimeric 1C5F12E9 (antibody, V domains shown)
VH: QVQLQQPGTELVKPGASVKMSCKASGYTFTTYWMHWVKQRPGQGLEWIGVIDPSDSDTTYNQKFKGKATLTVDTSSSTAYMQLSSLTSEDSAVYYCTRSLDGYYDYWGQGTTLTVSS
VL: DIQMTQSPASLSASVGETVTITCRPTENIYSYLAWYQQKQGKSPHLLVYFARTLAEGVPSRFSGSGSGTQFSLKINSLQPEDFGIYYCQHHYGTPWTFGGGTKLEIK
IC50, TSLP-his dependent survival and proliferation of BAF3-3E6 cells expressing TSLPR/IL7R (Cell Titer-Glo, RLU) [1]: 0.521 pM | IC50, TSLP-his dependent survival and proliferation of BAF3-3E6 cells expressing TSLPR/IL7R (Cell Titer-Glo, RLU) [2]: 1.37 pM

B2: hu1C5F12E9-V8 (IgG1) (antibody)
heavy: not shown
light: DIQMTQSPSSLSASVGDRVTITCRPTENIYSYLAWYQQKPGKAPKLLIYFARTLAEGVPSRFSGSGSGTDFTLTISSLQPEDFATYYCQHHYGTPWTFGGGTKVEIKRTVAAPSVFIFPPSDEQLKSGTASVVCLLNNFYPREAKVQWKVDNALQSGNSQESVTEQDSKDSTYSLSSTLTLSKADYEKHKVYACEVTHQGLSSPVTKSFNRGEC
IC50, TSLP-his dependent survival and proliferation of BAF3-3E6 cells expressing TSLPR/IL7R (RLU) [3]: 4.32 pM | IC50, STAT5-luciferase reporter in HEK293T-TSLPR/IL7R/STAT5-Luc cells stimulated with human TSLP-his (RLU) [4]: 11.8 ng/mL

B3: hu1C5F12E9-V14 (IgG1) (antibody)
heavy: not shown
light: DIQMTQSPSSLSASVGDRVTITCRPTENIYSYLAWYQQKPGKSPKLLIYFARTLAEGVPSRFSGSGSGTDFTLTISSLQPEDFATYYCQHHYGTPWTFGGGTKVEIKRTVAAPSVFIFPPSDEQLKSGTASVVCLLNNFYPREAKVQWKVDNALQSGNSQESVTEQDSKDSTYSLSSTLTLSKADYEKHKVYACEVTHQGLSSPVTKSFNRGEC
IC50, TSLP-his dependent survival and proliferation of BAF3-3E6 cells expressing TSLPR/IL7R (RLU) [5]: 6.73 pM | IC50, STAT5-luciferase reporter in HEK293T-TSLPR/IL7R/STAT5-Luc cells stimulated with human TSLP-his (RLU) [6]: 22 ng/mL

B4: hu1C5F12E9-V8 (IgG4) (antibody)
heavy: not shown
light: DIQMTQSPSSLSASVGDRVTITCRPTENIYSYLAWYQQKPGKAPKLLIYFARTLAEGVPSRFSGSGSGTDFTLTISSLQPEDFATYYCQHHYGTPWTFGGGTKVEIKRTVAAPSVFIFPPSDEQLKSGTASVVCLLNNFYPREAKVQWKVDNALQSGNSQESVTEQDSKDSTYSLSSTLTLSKADYEKHKVYACEVTHQGLSSPVTKSFNRGEC
IC50, TSLP-his dependent survival and proliferation of BAF3-3E6 cells expressing TSLPR/IL7R (Cell Titer-Glo, RLU) [1]: 1.68 pM | IC50, TSLP-his dependent survival and proliferation of BAF3-3E6 cells expressing TSLPR/IL7R (RLU) [3]: 14.7 pM | IC50, STAT5-luciferase reporter in HEK293T-TSLPR/IL7R/STAT5-Luc cells stimulated with human TSLP-his (RLU) [4]: ~16.2 ng/mL

B5: hu1C5F12E9-V14 (IgG4) (antibody)
heavy: not shown
light: DIQMTQSPSSLSASVGDRVTITCRPTENIYSYLAWYQQKPGKSPKLLIYFARTLAEGVPSRFSGSGSGTDFTLTISSLQPEDFATYYCQHHYGTPWTFGGGTKVEIKRTVAAPSVFIFPPSDEQLKSGTASVVCLLNNFYPREAKVQWKVDNALQSGNSQESVTEQDSKDSTYSLSSTLTLSKADYEKHKVYACEVTHQGLSSPVTKSFNRGEC
IC50, TSLP-his dependent survival and proliferation of BAF3-3E6 cells expressing TSLPR/IL7R (Cell Titer-Glo, RLU) [2]: 5.78 pM | IC50, TSLP-his dependent survival and proliferation of BAF3-3E6 cells expressing TSLPR/IL7R (RLU) [5]: 8.36 pM | IC50, STAT5-luciferase reporter in HEK293T-TSLPR/IL7R/STAT5-Luc cells stimulated with human TSLP-his (RLU) [6]: 25 ng/mL
